Measurements from the supplement of paper PMC5998384.

Experiments:
HeLa Kyoto [1] = test: solubility change mitosis vs G1/S (difference of NP-40 vs SDS log2 ratios) (log2 ratio difference); higher = more soluble in mitosis
HeLa Kyoto [2] = test: solubility in G1/S (NP-40 vs SDS abundance) (log2 ratio); higher = more soluble; details: cell cycle stage: G1/S
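Throughout, for solubility change mitosis vs G1/S (difference of NP-40 vs SDS log2 ratios): synchronized HeLa Kyoto cells (double thymidine block for G1/S, nocodazole release for mitosis), protein amounts in NP-40 versus SDS lysates quantified by mass spectrometry, three biological replicates.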
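Throughout, for solubility in G1/S (NP-40 vs SDS abundance): HeLa Kyoto cells arrested at G1/S by double thymidine block, proteins quantified by TMT10plex mass spectrometry in mild NP-40 versus SDS extracts, three biological replicates.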

| Sequence | solubility change mitosis (log2) (HeLa Kyoto [1]) | solubility in G1/S (log2) (HeLa Kyoto [2]) |
| --- | --- | --- |
| MLLSVTSRPGISTFGYNRNNKKPYVSLAQQMAPPSPSNSTPNSSSGSNGNDQLSKTNLYIRGLQPGTTDQDLVKLCQPYGKIVSTKAILDKTTNKCKGYGFVDFDSPSAAQKAVTALKASGVQAQMAKQQEQDPTNLYISNLPLSMDEQELEGMLKPFGQVISTRILRDTSGTSRGVGFARMESTEKCEAIITHFNGKYIKTPPGVPAPSDPLLCKFADGGPKKRQNQGKFVQNGRAWPRNADMGVMALTYDPTTALQNGFYPAPYNITPNRMLAQSALSPYLSSPVSSYQRVTQTSPLQVPNPSWMHHHSYLMQPSGSVLTPGMDHPISLQPASMMGPLTQQLGHLSLSSTGTYMPTAAAMQGAYISQYTPVPSSSVSVEESSGQQNQVAVDAPSEHGVYSFQFNK [RBMS2] | 0.0678 | 0.474 |
| MLPEAGSLWLLKLLRDIQLAQFYWPILEELNVTRPEHFDFVKPEDLDGIGMGRPAQRRLSEALKRLRSGPKSKNWVYKILGGFAPEHKEPTLPSDSPRHLPEPEGGLKCLIPEGAVCRGELLGSGCFGVVHRGLWTLPSGKSVPVAVKSLRVGPEGPMGTELGDFLREVSVMMNLEHPHVLRLHGLVLGQPLQMVMELAPLGSLHARLTAPAPTPPLLVALLCLFLRQLAGAMAYLGARGLVHRDLATRNLLLASPRTIKVADFGLVRPLGGARGRYVMGGPRPIPYAWCAPESLRHGAFSSASDVWMFGVTLWEMFSGGEEPWAGVPPYLILQRLEDRARLPRPPLCSRALYSLALRCWAPHPADRPSFSHLEGLLQEAGPSEACCVRDVTEPGALRMETGDPITVIEGSSSFHSPDSTIWKGQNGRTFKVGSFPASAVTLADAGGLPATRPVHRGTPARGDQHPGSIDGDRKKANLWDAPPARGQRRNMPLERMKGISRSLESVLSLGPRPTGGGSSPPEIRQARAVPQGPPGLPPRPPLSSSSPQPSQPSRERLPWPKRKPPHNHPMGMPGARKAAALSGGLLSDPELQRKIMEVELSVHGVTHQECQTALGATGGDVVSAIRNLKVDQLFHLSSRSRADCWRILEHYQWDLSAASRYVLARP [TNK1] | -0.0434 | 0.0271 |
| MLRWTRAWRLPREGLGPHGPSFARVPVAPSSSSGGRGGAEPRPLPLSYRLLDGEAALPAVVFLHGLFGSKTNFNSIAKILAQQTGRRVLTVDARNHGDSPHSPDMSYEIMSQDLQDLLPQLGLVPCVVVGHSMGGKTAMLLALQRPELVERLIAVDISPVESTGVSHFATYVAAMRAINIADELPRSRARKLADEQLSSVIQDMAVRQHLLTNLVEVDGRFVWRVNLDALTQHLDKILAFPQRQESYLGPTLFLLGGNSQFVHPSHHPEIMRLFPRAQMQTVPNAGHWIHADRPQDFIAAIRGFLV [ABHD11] | 0.0439 | 0.492 |
| MMAGCGEIDHSINMLPTNRKANESCSNTAPSLTVPECAICLQTCVHPVSLPCKHVFCYLCVKGASWLGKRCALCRQEIPEDFLDKPTLLSPEELKAASRGNGEYAWYYEGRNGWWQYDERTSRELEDAFSKGKKNTEMLIAGFLYVADLENMVQYRRNEHGRRRKIKRDIIDIPKKGVAGLRLDCDANTVNLARESSADGADSVSAQSGASVQPLVSSVRPLTSVDGQLTSPATPSPDASTSLEDSFAHLQLSGDNTAERSHRGEGEEDHESPSSGRVPAPDTSIEETESDASSDSEDVSAVVAQHSLTQQRLLVSNANQTVPDRSDRSGTDRSVAGGGTVSVSVRSRRPDGQCTVTEV [RNF146] | -0.158 | -0.244 |
| MMVESASETIRSAPSGQNGVGSLSGQADGSSGGATGTTASGTGREVTTGADSNGEMSPAELLHFQQQQALQVARQFLLQQASGLSSPGNNDSKQSASAVQVPVSVAMMSPQMLTPQQMQQILSPPQLQALLQQQQALMLQQLQEYYKKQQEQLHLQLLTQQQAGKPQPKEALGNKQLAFQQQLLQMQQLQQQHLLNLQRQGLVSLQPNQASGPLQTLPQAAVCPTDLPQLWKGEGAPGQPAEDSVKQEGLDLTGTAATATSFAAPPKVSPPLSHHTLPNGQPTVLTSRRDSSSHEETPGSHPLYGHGECKWPGCETLCEDLGQFIKHLNTEHALDDRSTAQCRVQMQVVQQLEIQLAKESERLQAMMAHLHMRPSEPKPFSQPLNPVPGSSSFSKVTVSAADSFPDGLVHPPTSAAAPVTPLRPPGLGSASLHGGGPARRRSSDKFCSPISSELAQNHEFYKNADVRPPFTYASLIRQAILETPDRQLTLNEIYNWFTRMFAYFRRNTATWKNAVRHNLSLHKCFVRVENVKGAVWTVDEREYQKRRPPKMTGSPTLVKNMISGLSYGALNASYQAALAESSFPLLNSPGMLNPGSASSLLPLSHDDVGAPVEPLPSNGSSSPPRLSPPQYSHQVQVKEEPAEAEEDRQPGPPLGAPNPSASGPPEDRDLEEELPGEELS [FOXP4] | -0.162 | 0.393 |
| MNMIWRNSISCLRLGKVPHRYQSGYHPVAPLGSRILTDPAKVFEHNMWDHMQWSKEEEAAARKKVKENSAVRVLLEEQVKYEREASKYWDTFYKIHKNKFFKDRNWLLREFPEILPVDQKPEEKARESSWDHVKTSATNRFSRMHCPTVPDEKNHYEKSSGSSEGQSKTESDFSNLDSEKHKKGPMETGLFPGSNATFRILEVGCGAGNSVFPILNTLENSPESFLYCCDFASGAVELVKSHSSYRATQCFAFVHDVCDDGLPYPFPDGILDVILLVFVLSSIHPDRTLFI [METTL8] | 0.054 | -0.312 |
| MNPLTKVKLINELNEREVQLGVADKVSWHSEYKDSAWIFLGGLPYELTEGDIICVFSQYGEIVNINLVRDKKTGKSKGFCFLCYEDQRSTILAVDNFNGIKIKGRTIRVDHVSNYRAPKDSEEIDDVTRQLQEKGCGARTPSPSLSESSEDEKPTKKHKKDKKEKKKKKKEKEKADREVQAEQPSSSSPRRKTVKEKDDTGPKKHSSKNSERAQKSEPREGQKLPKSRTAYSGGAEDLERELKKEKPKHEHKSSSRREAREEKTRIRDRGRSSDAHSSWYNGRSEGRSYRSRSRSRDKSHRHKRARRSRERESSNPSDRWRH [RBMX2] | 0.59 | -1.17 |
| MNQPQRMAPVGTDKELSDLLDFSMMFPLPVTNGKGRPASLAGAQFGGSGLEDRPSSGSWGSGDQSSSSFDPSRTFSEGTHFTESHSSLSSSTFLGPGLGGKSGERGAYASFGRDAGVGGLTQAGFLSGELALNSPGPLSPSGMKGTSQYYPSYSGSSRRRAADGSLDTQPKKVRKVPPGLPSSVYPPSSGEDYGRDATAYPSAKTPSSTYPAPFYVADGSLHPSAELWSPPGQAGFGPMLGGGSSPLPLPPGSGPVGSSGSSSTFGGLHQHERMGYQLHGAEVNGGLPSASSFSSAPGATYGGVSSHTPPVSGADSLLGSRGTTAGSSGDALGKALASIYSPDHSSNNFSSSPSTPVGSPQGLAGTSQWPRAGAPGALSPSYDGGLHGLQSKIEDHLDEAIHVLRSHAVGTAGDMHTLLPGHGALASGFTGPMSLGGRHAGLVGGSHPEDGLAGSTSLMHNHAALPSQPGTLPDLSRPPDSYSGLGRAGATAAASEIKREEKEDEENTSAADHSEEEKKELKAPRARTSPDEDEDDLLPPEQKAEREKERRVANNARERLRVRDINEAFKELGRMCQLHLNSEKPQTKLLILHQAVSVILNLEQQVRERNLNPKAACLKRREEEKVSGVVGDPQMVLSAPHPGLSEAHNPAGHM [TCF3] | -0.0342 | 0.291 |
| MNRIRIHVLPTNRGRITPVPRSQEPLSCAFTHRPCSHPRLEGQEFCIKHILEDKNAPFKQCSYISTKNGKRCPNAAPKPEKKDGVSFCAEHVRRNALALHAQMKKTNPGPVGETLLCQLSSYAKTELGSQTPESSRSEASRILDEDSWSDGEQEPITVDQTWRGDPDSEADSIDSDQEDPLKHAGVYTAEEVALIMREKLIRLQSLYIDQFKRLQHLLKEKKRRYLHNRKVEHEALGSSLLTGPEGLLAKERENLKRLKCLRRYRQRYGVEALLHRQLKERRMLATDGAAQQAHTTRSSQRCLAFVDDVRCSNQSLPMTRHCLTHICQDTNQVLFKCCQGSEEVPCNKPVPVSLSEDPCCPLHFQLPPQMYKPEQVLSVPDDLEAGPMDLYLSAAELQPTESLPLEFSDDLDVVGDGMQCPPSPLLFDPSLTLEDHLVKEIAEDPVDILGQMQMAGDGCRSQGSRNSEKASAPLSQSGLATANGKPEPTSIS [KANSL2] | -0.0302 | 0.453 |
| MNSRQAWRLFLSQGRGDRWVSRPRGHFSPALRREFFTTTTKEGYDRRPVDITPLEQRKLTFDTHALVQDLETHGFDKTQAETIVSALTALSNVSLDTIYKEMVTQAQQEITVQQLMAHLDAIRKDMVILEKSEFANLRAENEKMKIELDQVKQQLMHETSRIRADNKLDINLERSRVTDMFTDQEKQLMETTTEFTKKDTQTKSIISETSNKIDAEIASLKTLMESNKLETIRYLAASVFTCLAIALGFYRFWK [CCDC90B] | 0.249 | 0.144 |
| MNSVGEACTDMKREYDQCFNRWFAEKFLKGDSSGDPCTDLFKRYQQCVQKAIKEKEIPIEGLEFMGHGKEKPENSS [TRIAP1] | 0.6 | -0.88 |
| MNVTSIALRAETWLLAAWHVKVPPMWLEACINWIQEENNNVNLSQAQMNKQVFEQWLLTDLRDLEHPLLPDGILEIPKGELNGFYALQINSLVDVSQPAYSQIQKLRGKNTTNDLVTAEAQVTPKPWEAKPSRMLMLQLTDGIVQIQGMEYQPIPILHSDLPPGTKILIYGNISFRLGVLLLKPENVKVLGGEVDALLEEYAQEKVLARLIGEPDLVVSVIPNNSNENIPRVTDVLDPALGPSDEELLASLDENDELTANNDTSSERCFTTGSSSNTIPTRQSSFEPEFVISPRPKEEPSNLSIHVMDGELDDFSLEEALLLEETVQKEQMETKELQPLTFNRNADRSIERFSHNPNTTNNFSLTCKNGNNNWSEKNVSEQMTNEDKSFGCPSVRDQNRSIFSVHCNVPLAHDFTNKEKNLETDNKIKQTSSSDSHSLNNKILNREVVNYVQKRNSQISNENDCNLQSCSLRSSENSINLSIAMDLYSPPFVYLSVLMASKPKEVTTVKVKAFIVTLTGNLSSSGGIWSITAKVSDGTAYLDVDFVDEILTSLIGFSVPEMKQSKKDPLQYQKFLEGLQKCQRDLIDLCCLMTISFNPSLSKAMVLALQDVNMEHLENLKKRLNK [RMI1] | 0.0277 | -0.0709 |
